Test results published in patent publication US20100169988A1 (published 2010).
Blank lines part the entries; values can stand above or below the binder they belong to.

Assays:
APP-TAP-AICD [1] = biological target: T1, APP-TAP-AICD (human, UniProt P05067 18-695); assay: streptavidin purification of APP-TAP-AICD from brain homogenate; LTQ-FT semiquantitative method, transgenic mouse 75 vs control mouse 72
APP-TAP-AICD [2] = biological target: T1, APP-TAP-AICD; assay: streptavidin purification of APP-TAP-AICD from brain homogenate; iTRAQ 116/114, transgenic mouse 75 vs control mouse 72; MALDI-TOF/TOF;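 further: relative protein abundance in the transgenic versus control pull-down, limited to proteins with high quality scores and above-average enrichment, without full normalization across the whole measurement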

probability that this protein is enriched (APP-TAP-AICD [1]): 0.82 | iTRAQ ratio (APP-TAP-AICD [2]): 4.57
B1: Dynamin-1 (enzyme, mouse, UniProt P39053 1-867, looked up)
chain: MGNRGMEDLIPLVNRLQDAFSAIGQNADLDLPQIAVVGGQSAGKSSVLENFVGRDFLPRGSGIVTRRPLVLQLVNSTTEYAEFLHCKGKKFTDFEEVRLEIEAETDRVTGTNKGISPVPINLRVYSPHVLNLTLVDLPGMTKVPVGDQPPDIEFQIRDMLMQFVTKENCLILAVSPANSDLANSDALKIAKEVDPQGQRTIGVITKLDLMDEGTDARDVLENKLLPLRRGYIGVVNRSQKDIDGKKDITAALAAERKFFLSHPSYRHLADRMGTPYLQKVLNQQLTNHIRDTLPGLRNKLQSQLLSIEKEVDEYKNFRPDDPARKTKALLQMVQQFAVDFEKRIEGSGDQIDTYELSGGARINRIFHERFPFELVKMEFDEKELRREISYAIKNIHGIRTGLFTPDMAFETIVKKQVKKIREPCLKCVDMVISELISTVRQCTKKLQQYPRLREEMERIVTTHIREREGRTKEQVMLLIDIELAYMNTNHEDFIGFANAQQRSNQMNKKKTSGNQDEILVIRKGWLTINNIGIMKGGSKEYWFVLTAENLSWYKDDEEKEKKYMLSVDNLKLRDVEKGFMSSKHIFALFNTEQRNVYKDYRQLELACETQEEVDSWKASFLRAGVYPERVGDKEKASETEENGSDSFMHSMDPQLERQVETIRNLVDSYMAIVNKTVRDLMPKTIMHLMINNTKEFIFSELLANLYSCGDQNTLMEESAEQAQRRDEMLRMYHALKEALSIIGDINTTTVSTPMPPPVDDSWLQVQSVPAGRRSPTSSPTPQRRAPAVPPARPGSRGPAPGPPPAGSALGGAPPVPSRPGASPDPFGPPPQVPSRPNRAPPGVPSLGAWRLNSPQGKHENRAGKARL
notes: also called DYN1_MOUSE; Dynamin I

probability that this protein is enriched (APP-TAP-AICD [1]): 1 | iTRAQ ratio (APP-TAP-AICD [2]): 4.61
B2: Fructose-bisphosphate aldolase A (Muscle-type aldolase) (Aldolase 1) (enzyme, mouse, UniProt P05064 2-364, looked up)
chain: PHPYPALTPEQKKELSDIAHRIVAPGKGILAADESTGSIAKRLQSIGTENTEENRRFYRQLLLTADDRVNPCIGGVILFHETLYQKADDGRPFPQVIKSKGGVVGIKVDKGVVPLAGTNGETTTQGLDGLSERCAQYKKDGADFAKWRCVLKIGEHTPSALAIMENANVLARYASICQQNGIVPIVEPEILPDGDHDLKRCQYVTEKVLAAVYKALSDHHVYLEGTLLKPNMVTPGHACTQKFSNEEIAMATVTALRRTVPPAVTGVTFLSGGQSEEEASINLNAINKCPLLKPWALTFSYGRALQASALKAWGGKKENLKAAQEEYIKRALANSLACQGKYTPSGQSGAAASESLFISNHAY

probability that this protein is enriched (APP-TAP-AICD [1]): 0.85
B3: Clathrin coat assembly protein AP180 (Clathrin coat-associated protein AP180) (91 kDa synaptosomal-associated protein) (other, mouse, UniProt Q61548 1-901, looked up)
chain: MSGQTLTDRIAAAQYSVTGSAVARAVCKATTHEVMGPKKKHLDYLIQATNETNVNIPQMADTLFERATNSSWVVVFKALVTTHHLMVHGNERFIQYLASRNTLFNLSNFLDKSGSHGYDMSTFIRRYSRYLNEKAFSYRQMAFDFARVKKGADGVMRTMVPEKLLKSMPILQGQIDALLEFDVHPNELTNGVINAAFMLLFKDLIKLFACYNDGVINLLEKFFEMKKGQCKDALEIYKRFLTRMTRVSEFLKVAEQVGIDKGDIPDLTQAPSSLMETLEQHLNTLEGKKPGNNEGSGAPSPLSKSSPATTVTSPNSTPAKTIDTSPPVDIFATASAAAPVSSAKPSSDLLDLQPDFSGAAAGAAAPVVPPSGGATAWGDLLGEDSLAALSSVPCEAPISDPFAPEPSPPTTTTEPASASASTTTAVTAVTTEVDLFGDAFAASPGEAPAASEGATAPATPAPVAAALDACSGNDPFAPSEGSAEAAPELDLFAMKPPETSAPVVTPTASTAPPVPATAPSPAPTAVAATAATTTAAAAATTTATTSAAAATTAAAPPALDIFGDLFDSAPEVAAAPKPDAAPSIDLFGTDAFSSPPRGASPVPESSLTADLLSVDAFAAPSPASTASPAKAESSGVIDLFGDAFGSGASETQPAPQAVSSSSASADLLAGFGGSFMAPSTTPVTPAQNNLLQPSFEAAFGTTPSTSSSSSFDPSVFDGLGDLLMPTMAPSGQPAPVSMVPPSPAMAASKGLGSDLDSSLASLVGNLGISGTTSKKGDLQWNAGEKKLTGGANWQPKVTPATWSAGVPPQGTVPPTSSVPPGAGAPSVGQPGAGFGMPPSGTGMTMMSQQPVMFAQPMMRPPFGAAAVPGTQLSPSPTPATQSPKKPPAKDPLADLNIKDFL
notes: also called AP180_MOUSE; Clathrin coat assembly protein Aβ180

probability that this protein is enriched (APP-TAP-AICD [1]): 0.86
B4: Plasma membrane calcium-transporting ATPase 2 (PMCA2) (enzyme, mouse, UniProt Q9R0K7 1-1198, looked up)
chain: MGDMTNSDFYSKNQRNESSHGGEFGCTMEELRSLMELRGTEAVVKIKETYGDTEAICRRLKTSPVEGLPGTAPDLEKRKQIFGQNFIPPKKPKTFLQLVWEALQDVTLIILEIAAIISLGLSFYHPPGESNEGCATAQGGAEDEGEAEAGWIEGAAILLSVICVVLVTAFNDWSKEKQFRGLQSRIEQEQKFTVVRAGQVVQIPVAEIVVGDIAQIKYGDLLPADGLFIQGNDLKIDESSLTGESDQVRKSVDKDPMLLSGTHVMEGSGRMVVTAVGVNSQTGIIFTLLGAGGEEEEKKDKKAKQQDGAAAMEMQPLKSAEGGDADDKKKANMHKKEKSVLQGKLTKLAVQIGKAGLVMSAITVIILVLYFTVDTFVVNKKPWLTECTPVYVQYFVKFFIIGVTVLVVAVPEGLPLAVTISLAYSVKKMMKDNNLVRHLDACETMGNATAICSDKTGTLTTNRMTVVQAYVGDVHYKEIPDPSSINAKTLELLVNAIAINSAYTTKILPPEKEGALPRQVGNKTECGLLGFVLDLRQDYEPVRSQMPEEKLYKVYTFNSVRKSMSTVIKMPDESFRMYSKGASEIVLKKCCKILSGAGEARVFRPRDRDEMVKKVIEPMACDGLRTICVAYRDFPSSPEPDWDNENDILNELTCICVVGIEDPVRPEVPEAIRKCQRAGITVRMVTGDNINTARAIAIKCGIIHPGEDFLCLEGKEFNRRIRNEKGEIEQERIDKIWPKLRVLARSSPTDKHTLVKGIIDSTHTEQRQVVAVTGDGTNDGPALKKADVGFAMGIAGTDVAKEASDIILTDDNFSSIVKAVMWGRNVYDSISKFLQFQLTVNVVAVIVAFTGACITQDSPLKAVQMLWVNLIMDTFASLALATEPPTETLLLRKPYGRNKPLISRTMMKNILGHAVYQLTLIFTLLFVGEKMFQIDSGRNAPLHSPPSEHYTIIFNTFVMMQLFNEINARKIHGERNVFDGIFRNPIFCTIVLGTFAIQIVIVQFGGKPFSCSPLQLDQWMWCIFIGLGELVWGQVIATIPTSRLKFLKEAGRLTQKEEIPEEELNEDVEEIDHAERELRRGQILWFRGLNRIQTQIRVVKAFRSSLYEGLEKPESRTSIHNFMAHPEFRIEDSQPHIPLIDDTDLEEDAALKQNSSPPSSLNKNNSAIDSGINLTTDTSKSATSSSPGSPIHSLETSL
notes: also called AT2B2_MOUSE

probability that this protein is enriched (APP-TAP-AICD [1]): 0.83 | iTRAQ ratio (APP-TAP-AICD [2]): 4.28
B5: 14-3-3 protein gamma (other, mouse, UniProt P61982 1-247, looked up)
chain: MVDREQLVQKARLAEQAERYDDMAAAMKNVTELNEPLSNEERNLLSVAYKNVVGARRSSWRVISSIEQKTSADGNEKKIEMVRAYREKIEKELEAVCQDVLSLLDNYLIKNCSETQYESKVFYLKMKGDYYRYLAEVATGEKRATVVESSEKAYSEAHEISKEHMQPTHPIRLGLALNYSVFYYEIQNAPEQACHLAKTAFDDAIAELDTLNEDSYKDSTLIMQLLRDNLTLWTSDQQDDDGGEGNN
notes: also called 14-3-3 γ

probability that this protein is enriched (APP-TAP-AICD [1]): 0.83 | iTRAQ ratio (APP-TAP-AICD [2]): 4.51
B6: 14-3-3 protein zeta/delta (Protein kinase C inhibitor protein-1) (KCIP-1) (SEZ-2) (other, mouse, UniProt P63101 1-245, looked up)
chain: MDKNELVQKAKLAEQAERYDDMAACMKSVTEQGAELSNEERNLLSVAYKNVVGARRSSWRVVSSIEQKTEGAEKKQQMAREYREKIETELRDICNDVLSLLEKFLIPNASQPESKVFYLKMKGDYYRYLAEVAAGDDKKGIVDQSQQAYQEAFEISKKEMQPTHPIRLGLALNFSVFYYEILNSPEKACSLAKTAFDEAIAELDTLSEESYKDSTLIMQLLRDNLTLWTSDTQGDEAEAGEGGEN

probability that this protein is enriched (APP-TAP-AICD [1]): 0.86 | iTRAQ ratio (APP-TAP-AICD [2]): 4.71
B7: Malate dehydrogenase; mitochondrial precursor (enzyme, mouse, UniProt P08249 25-338, looked up)
chain: AKVAVLGASGGIGQPLSLLLKNSPLVSRLTLYDIAHTPGVAADLSHIETRANVKGYLGPEQLPDCLKGCDVVVIPAGVPRKPGMTRDDLFNTNATIVATLTAACAQHCPEAMVCIIANPVNSTIPITAEVFKKHGVYNPNKIFGVTTLDIVRANTFVAELKGLDPARVNVPVIGGHAGKTIIPLISQCTPKVDFPQDQLATLTGRIQEAGTEVVKAKAGAGSATLSMAYAGARFVFSLVDAMNGKEGVVECSFVQSKETECTYFSTPLLLGKKGLEKNLGIGKITPFEEKMIAEAIPELKASIKKGEDFVKNMK

probability that this protein is enriched (APP-TAP-AICD [1]): 1 | iTRAQ ratio (APP-TAP-AICD [2]): 4.53
B8: Aconitate hydratase; mitochondrial precursor (Citrate hydro-lyase) (enzyme, mouse, UniProt Q99KI0 28-780, looked up)
chain: QRAKVAMSHFEPSEYIRYDLLEKNINIVRKRLNRPLTLSEKIVYGHLDDPANQEIERGKTYLRLRPDRVAMQDATAQMAMLQFISSGLPKVAVPSTIHCDHLIEAQVGGEKDLRRAKDINQEVYNFLATAGAKYGVGFWRPGSGIIHQIILENYAYPGVLLIGTDSHTPNGGGLGGICIGVGGADAVDVMAGIPWELKCPKVIGVKLTGSLSGWTSPKDVILKVAGILTVKGGTGAIVEYHGPGVDSISCTGMATICNMGAEIGATTSVFPYNHRMKKYLSKTGRTDIANLAEEFKDHLVPDPGCQYDQVIEINLNELKPHINGPFTPDLAHPVADVGTVAEKEGWPLDIRVGLIGSCTNSSYEDMGRSAAVAKQALAHGLKCKSQFTITPGSEQIRATIERDGYAQILRDVGGIVLANACGPCIGQWDRKDIKKGEKNTIVTSYNRNFTGRNDANPETHAFVTSPEIVTALAIAGTLKFNPETDFLTGKDGKKFKLEAPDADELPRSDFDPGQDTYQHPPKDSSGQRVDVSPTSQRLQLLEPFDKWDGKDLEDLQILIKVKGKCTTDHISAAGPWLKFRGHLDNISNNLLIGAINIENGKANSVRNAVTQEFGPVPDTARYYKKHGIRWVVIGDENYGEGSSREHAALEPRHLGGRAIITKSFARIHETNLKKQGLLPLTFADPSDYNKIHPVDKLTIQGLKDFAPGKPLKCVIKHPNGTQETILLNHTFNETQIEWFRAGSALNRMKELQQ
notes: also called Aconitase

probability that this protein is enriched (APP-TAP-AICD [1]): 0.86
B9: phosphoglycerate mutase 1 (enzyme, mouse, UniProt Q9DBJ1 1-254, looked up)
chain: MAAYKLVLIRHGESAWNLENRFSGWYDADLSPAGHEEAKRGGQALRDAGYEFDICFTSVQKRAIRTLWTVLDAIDQMWLPVVRTWRLNERHYGGLTGLNKAETAAKHGEAQVKIWRRSYDVPPPPMEPDHPFYSNISKDRRYADLTEDQLPSCESLKDTIARALPFWNEEIVPQIKEGKRVLIAAHGNSLRGIVKHLEGLSEEAIMELNLPTGIPIVYELDKNLKPIKPMQFLGDEETVRKAMEAVAAQGKVKK
notes: also called PGAM1_MOUSE

probability that this protein is enriched (APP-TAP-AICD [1]): 1 | iTRAQ ratio (APP-TAP-AICD [2]): 4.87
B10: Phosphatidylethanolamine-binding protein (PEBP) (other, mouse, UniProt P70296 2-187, looked up)
chain: AADISQWAGPLCLQEVDEPPQHALRVDYAGVTVDELGKVLTPTQVMNRPSSISWDGLDPGKLYTLVLTDPDAPSRKDPKFREWHHFLVVNMKGNDISSGTVLSDYVGSGPPSGTGLHRYVWLVYEQEQPLSCDEPILSNKSGDNRGKFKVETFRKKYNLGAPVAGTCYQAEWDDYVPKLYEQLSGK
notes: also called PEBP1_MOUSE
